Experimental data published in IntAct's records for PubMed 31515488.

B1: Oxidative stress-induced growth inhibitor 1 (Homo sapiens), Q9UJX0 (parent)
chain: MSSSRKDHLGASSSEPLPVIIVGNGPSGICLSYLLSGYTPYTKPDAIHPHPLLQRKLTEAPGVSILDQDLDYLSEGLEGRSQSPVALLFDALLRPDTDFGGNMKSVLTWKHRKEHAIPHVVLGRNLPGGAWHSIEGSMVILSQGQWMGLPDLEVKDWMQKKRRGLRNSRATAGDIAHYYRDYVVKKGLGHNFVSGAVVTAVEWGTPDPSSCGAQDSSPLFQVSGFLTRNQAQQPFSLWARNVVLATGTFDSPARLGIPGEALPFIHHELSALEAATRVGAVTPASDPVLIIGAGLSAADAVLYARHYNIPVIHAFRRAVDDPGLVFNQLPKMLYPEYHKVHQMMREQSILSPSPYEGYRSLPRHQLLCFKEDCQAVFQDLEGVEKVFGVSLVLVLIGSHPDLSFLPGAGADFAVDPDQPLSAKRNPIDVDPFTYQSTRQEGLYAMGPLAGDNFVRFVQGGALAVASSLLRKETRKPP
B2: Zinc finger protein 581 (Homo sapiens), Q9P0T4 (parent)
chain: MLVLPSPCPQPLAFSSVETMEGPPRRTCRSPEPGPSSSIGSPQASSPPRPNHYLLIDTQGVPYTVLVDEESQREPGASGAPGQKKCYSCPVCSRVFEYMSYLQRHSITHSEVKPFECDICGKAFKRASHLARHHSIHLAGGGRPHGCPLCPRRFRDAGELAQHSRVHSGERPFQCPHCPRRFMEQNTLQKHTRWKHP
B3: Rho guanine nucleotide exchange factor 3 (Homo sapiens), Q9NR81 (parent)
chain: MVAKDYPFYLTVKRANCSLELPPASGPAKDAEEPSNKRVKPLSRVTSLANLIPPVKATPLKRFSQTLQRSISFRSESRPDILAPRPWSRNAAPSSTKRRDSKLWSETFDVCVNQMLTSKEIKRQEAIFELSQGEEDLIEDLKLAKKAYHDPMLKLSIMTEQELNQIFGTLDSLIPLHEELLSQLRDVRKPDGSTEHVGPILVGWLPCLSSYDSYCSNQVAAKALLDHKKQDHRVQDFLQRCLESPFSRKLDLWNFLDIPRSRLVKYPLLLREILRHTPNDNPDQQHLEEAINIIQGIVAEINTKTGESECRYYKERLLYLEEGQKDSLIDSSRVLCCHGELKNNRGVKLHVFLFQEVLVITRAVTHNEQLCYQLYRQPIPVKDLLLEDLQDGEVRLGGSLRGAFSNNERIKNFFRVSFKNGSQSQTHSLQANDTFNKQQWLNCIRQAKETVLCAAGQAGVLDSEGSFLNPTTGSRELQGETKLEQMDQSDSESDCSMDTSEVSLDCERMEQTDSSCGNSRHGESNV
B4: Testis-specific protein 10-interacting protein (Homo sapiens), Q3SY00 (parent)
chain: MGQDTDMLNTYQQLVRTPSVRPGQDVRLQAPGTRTGLLKLLSTVSQDKQGCLGSGDGVPNQDLQQRSQSSRQTAKKDRKPRGQSKKGQGSEESEDHFPLLPRKPSFPFQWAWESIATDVRAVLQPSSPTPGHQALPMPSSFSQRQSRRKSTANLPEAHGCCWKTEAQNLKARQQLGAWGGVSIPTGKGELGSEPPSGLQLPGRRPGSGSASDKQVQLQSLGAEEAERGLSSGVLPQRPRRGSISEEEQFSEATEEAEEGEHRTPCRRRAGCQRKGQISGEEASDEGEVQGQSQGSSPSFNNLRRRQWRKTRAKELQGPWDLEKLHRQLQRDLDCGPQKLPWKTLRAAFQASKRNGKAYASGYDETFVSANLPNRTFHKRQEATRSLLQAWERQRQEERQQAELRRARTQHVQRQVAHCLAAYAPRGSRGPGAAQRKLEELRRQERQRFAEYQAELQGIQHRVQARPFLFQQAMQANARLTVTRRFSQVLSALGLDEEQLLSEAGKVDREGTPRKPRSHRSMGVRMEHSPQRPPRTEPTGSQPDRHYNPSLDPECSP
B5: Protein FAM9B (Homo sapiens), Q8IZU0 (parent)
chain: MAAWGKKHAGKDPVRDECEERNRFTETREEDVTDEHGEREPFAETDEHTGANTKKPEDTAEDLTAKRKRMKMDKTCSKTKNKSKHALRKKQLKRQKRDYIHSLKLLNVLEEYITDEQKEEEEEEGEEEELIRIFQEQQKKWQQYRSVRRERLKEMKLLRDQFVKALEDFEDLCDRVFSDEDSELDN
partner: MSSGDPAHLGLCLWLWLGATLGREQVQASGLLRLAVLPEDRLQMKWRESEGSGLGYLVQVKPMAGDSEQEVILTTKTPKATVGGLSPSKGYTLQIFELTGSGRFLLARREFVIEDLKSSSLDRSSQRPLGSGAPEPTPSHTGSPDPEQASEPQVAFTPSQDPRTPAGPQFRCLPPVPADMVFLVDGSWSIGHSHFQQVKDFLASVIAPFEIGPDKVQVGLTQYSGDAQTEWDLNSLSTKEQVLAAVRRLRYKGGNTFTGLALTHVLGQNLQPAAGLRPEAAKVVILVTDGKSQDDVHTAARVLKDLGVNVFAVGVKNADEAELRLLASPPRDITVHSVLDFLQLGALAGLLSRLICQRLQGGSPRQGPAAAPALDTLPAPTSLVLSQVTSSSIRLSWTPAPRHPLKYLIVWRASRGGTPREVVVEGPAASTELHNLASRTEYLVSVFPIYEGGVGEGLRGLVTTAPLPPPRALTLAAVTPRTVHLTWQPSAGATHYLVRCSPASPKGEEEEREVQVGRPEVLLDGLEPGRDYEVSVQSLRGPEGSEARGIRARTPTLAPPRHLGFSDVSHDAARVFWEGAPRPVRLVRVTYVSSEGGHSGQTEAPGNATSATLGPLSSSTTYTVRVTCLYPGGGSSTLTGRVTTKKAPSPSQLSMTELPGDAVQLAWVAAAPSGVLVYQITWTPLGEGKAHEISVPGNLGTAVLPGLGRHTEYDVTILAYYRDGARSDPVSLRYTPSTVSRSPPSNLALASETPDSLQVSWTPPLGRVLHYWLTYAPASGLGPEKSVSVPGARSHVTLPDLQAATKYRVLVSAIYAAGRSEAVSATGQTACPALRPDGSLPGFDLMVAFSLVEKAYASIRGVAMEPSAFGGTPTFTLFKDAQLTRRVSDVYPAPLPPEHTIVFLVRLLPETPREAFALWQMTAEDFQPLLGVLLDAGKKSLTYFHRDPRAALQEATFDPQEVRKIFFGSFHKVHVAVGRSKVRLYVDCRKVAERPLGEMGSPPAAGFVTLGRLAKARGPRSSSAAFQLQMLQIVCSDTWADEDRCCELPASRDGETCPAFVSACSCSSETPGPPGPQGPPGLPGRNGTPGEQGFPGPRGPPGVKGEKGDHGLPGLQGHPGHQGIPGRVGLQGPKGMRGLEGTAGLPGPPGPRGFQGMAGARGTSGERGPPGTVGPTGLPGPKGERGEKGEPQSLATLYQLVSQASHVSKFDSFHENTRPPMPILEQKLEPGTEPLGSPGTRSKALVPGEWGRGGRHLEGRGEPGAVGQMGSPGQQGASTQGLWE
B6: Atos homolog protein B (Homo sapiens), Q7L5A3 (parent)
chain: MRHVQAEPSPSSEPEAGPSQPPVRQGALQGGLLMGYSPAGGATSPGVYQVSIFSPPAGTSEPHRALKRQAPSTEGPRELKRGPGLGAREGLPPEEPSTVGLLGPEGPGLGLGVASQHFSHRGLCVVEQRSSVTSSWTSGAWSPPCPPSNASCNTLHTRDWASPDPGGQGSLGESPGPAPPGQLHTLDTDLHSLAQIGGKSPVAGVGNGGSLWPRESPGTANGHSPEHTPPGPGPPGPCPTKRRLLPAGEAPDVSSEEEGPAPRRRRGSLGHPTAANSSDAKATPFWSHLLPGPKEPVLDPTDCGPMGRRLKGARRLKLSPLRSLRKGPGLLSPPSASPVPTPAVSRTLLGNFEESLLRGRFAPSGHIEGFTAEIGASGSYCPQHVTLPVTVTFFDVSEQNAPAPFLGIVDLNPLGRKGYSVPKVGTVQVTLFNPNQTVVKMFLVTFDFSDMPAAHMTFLRHRLFLVPVGEEGNANPTHRLLCYLLHLRFRSSRSGRLSLHGDIRLLFSRRSLELDTGLPYELQAVTEAPHNPRYSPLP

Variants of: B1
Conditions: with htf4_human TCF12, Q99081
Sequence of htf4_human TCF12, Q99081 (Q99081 whole entry): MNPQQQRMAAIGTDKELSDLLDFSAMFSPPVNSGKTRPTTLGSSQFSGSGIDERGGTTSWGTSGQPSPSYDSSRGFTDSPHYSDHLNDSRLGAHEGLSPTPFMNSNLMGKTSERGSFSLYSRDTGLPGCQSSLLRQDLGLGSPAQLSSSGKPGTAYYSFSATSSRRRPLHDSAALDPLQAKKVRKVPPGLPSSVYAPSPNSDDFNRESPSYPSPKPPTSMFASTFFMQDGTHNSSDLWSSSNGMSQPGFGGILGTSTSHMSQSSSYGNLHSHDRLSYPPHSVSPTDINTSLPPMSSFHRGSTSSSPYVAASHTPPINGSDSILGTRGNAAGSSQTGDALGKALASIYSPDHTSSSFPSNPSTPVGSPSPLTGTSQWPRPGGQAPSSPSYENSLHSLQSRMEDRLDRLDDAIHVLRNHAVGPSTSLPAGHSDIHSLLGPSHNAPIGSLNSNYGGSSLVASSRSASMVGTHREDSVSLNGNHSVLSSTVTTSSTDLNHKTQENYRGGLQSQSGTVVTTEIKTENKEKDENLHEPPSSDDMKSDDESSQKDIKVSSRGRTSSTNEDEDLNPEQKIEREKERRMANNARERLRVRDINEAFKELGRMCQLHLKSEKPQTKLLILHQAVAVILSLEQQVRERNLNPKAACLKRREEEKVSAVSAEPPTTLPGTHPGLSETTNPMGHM

| Variant | effect of a mutation on the interaction |
| --- | --- |
| S236L | disrupting interaction strength |
| D320N | with no effect |

Variants of: B1
Conditions: with itf2_human TCF4, P15884
Sequence of itf2_human TCF4, P15884 (P15884 whole entry): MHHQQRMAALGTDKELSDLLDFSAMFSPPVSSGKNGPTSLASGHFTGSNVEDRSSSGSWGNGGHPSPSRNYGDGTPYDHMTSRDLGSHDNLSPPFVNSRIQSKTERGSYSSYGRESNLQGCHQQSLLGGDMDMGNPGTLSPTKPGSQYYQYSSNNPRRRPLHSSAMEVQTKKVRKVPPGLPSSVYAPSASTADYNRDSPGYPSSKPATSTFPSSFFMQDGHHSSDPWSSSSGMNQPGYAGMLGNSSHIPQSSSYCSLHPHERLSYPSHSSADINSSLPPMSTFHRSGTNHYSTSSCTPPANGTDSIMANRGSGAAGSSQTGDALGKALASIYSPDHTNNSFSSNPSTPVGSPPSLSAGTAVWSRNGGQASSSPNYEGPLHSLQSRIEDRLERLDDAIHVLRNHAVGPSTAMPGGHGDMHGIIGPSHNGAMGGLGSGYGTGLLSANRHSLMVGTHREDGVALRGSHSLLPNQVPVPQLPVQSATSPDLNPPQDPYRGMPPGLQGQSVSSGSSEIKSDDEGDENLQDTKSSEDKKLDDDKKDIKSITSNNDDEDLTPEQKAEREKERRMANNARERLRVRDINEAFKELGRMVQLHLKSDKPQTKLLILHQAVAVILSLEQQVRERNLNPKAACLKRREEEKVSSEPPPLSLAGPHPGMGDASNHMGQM

| Variant | effect of a mutation on the interaction |
| --- | --- |
| S236L | with no effect |
| D320N | with no effect |

Variants of: B1
Conditions: with ikzf3_human IKZF3, Q9UKT9
Sequence of ikzf3_human IKZF3, Q9UKT9 (Q9UKT9 whole entry): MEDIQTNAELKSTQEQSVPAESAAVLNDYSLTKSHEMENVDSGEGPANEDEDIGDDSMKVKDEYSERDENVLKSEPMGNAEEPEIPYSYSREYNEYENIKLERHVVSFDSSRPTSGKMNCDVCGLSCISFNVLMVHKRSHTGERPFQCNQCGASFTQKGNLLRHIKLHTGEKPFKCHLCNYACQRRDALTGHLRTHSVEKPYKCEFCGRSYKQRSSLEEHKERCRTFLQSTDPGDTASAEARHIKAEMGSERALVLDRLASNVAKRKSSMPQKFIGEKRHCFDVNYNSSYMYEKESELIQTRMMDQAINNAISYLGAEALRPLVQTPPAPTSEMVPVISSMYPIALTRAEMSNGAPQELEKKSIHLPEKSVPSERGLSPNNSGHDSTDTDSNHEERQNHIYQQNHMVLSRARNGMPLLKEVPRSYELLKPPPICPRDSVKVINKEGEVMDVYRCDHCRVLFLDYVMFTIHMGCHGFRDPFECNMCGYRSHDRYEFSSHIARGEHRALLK

| Variant | effect of a mutation on the interaction |
| --- | --- |
| S236L | disrupting interaction strength |
| D320N | with no effect |

Variants of: B2
Conditions: with cc136_human CCDC136, Q96JN2

| Variant | effect of a mutation on the interaction |
| --- | --- |
| R143W | with no effect |
| E32A | with no effect |

Variants of: B2
Conditions: with mtus2_human MTUS2, Q5JR59
Target sequence in this assay (Q5JR59 whole entry): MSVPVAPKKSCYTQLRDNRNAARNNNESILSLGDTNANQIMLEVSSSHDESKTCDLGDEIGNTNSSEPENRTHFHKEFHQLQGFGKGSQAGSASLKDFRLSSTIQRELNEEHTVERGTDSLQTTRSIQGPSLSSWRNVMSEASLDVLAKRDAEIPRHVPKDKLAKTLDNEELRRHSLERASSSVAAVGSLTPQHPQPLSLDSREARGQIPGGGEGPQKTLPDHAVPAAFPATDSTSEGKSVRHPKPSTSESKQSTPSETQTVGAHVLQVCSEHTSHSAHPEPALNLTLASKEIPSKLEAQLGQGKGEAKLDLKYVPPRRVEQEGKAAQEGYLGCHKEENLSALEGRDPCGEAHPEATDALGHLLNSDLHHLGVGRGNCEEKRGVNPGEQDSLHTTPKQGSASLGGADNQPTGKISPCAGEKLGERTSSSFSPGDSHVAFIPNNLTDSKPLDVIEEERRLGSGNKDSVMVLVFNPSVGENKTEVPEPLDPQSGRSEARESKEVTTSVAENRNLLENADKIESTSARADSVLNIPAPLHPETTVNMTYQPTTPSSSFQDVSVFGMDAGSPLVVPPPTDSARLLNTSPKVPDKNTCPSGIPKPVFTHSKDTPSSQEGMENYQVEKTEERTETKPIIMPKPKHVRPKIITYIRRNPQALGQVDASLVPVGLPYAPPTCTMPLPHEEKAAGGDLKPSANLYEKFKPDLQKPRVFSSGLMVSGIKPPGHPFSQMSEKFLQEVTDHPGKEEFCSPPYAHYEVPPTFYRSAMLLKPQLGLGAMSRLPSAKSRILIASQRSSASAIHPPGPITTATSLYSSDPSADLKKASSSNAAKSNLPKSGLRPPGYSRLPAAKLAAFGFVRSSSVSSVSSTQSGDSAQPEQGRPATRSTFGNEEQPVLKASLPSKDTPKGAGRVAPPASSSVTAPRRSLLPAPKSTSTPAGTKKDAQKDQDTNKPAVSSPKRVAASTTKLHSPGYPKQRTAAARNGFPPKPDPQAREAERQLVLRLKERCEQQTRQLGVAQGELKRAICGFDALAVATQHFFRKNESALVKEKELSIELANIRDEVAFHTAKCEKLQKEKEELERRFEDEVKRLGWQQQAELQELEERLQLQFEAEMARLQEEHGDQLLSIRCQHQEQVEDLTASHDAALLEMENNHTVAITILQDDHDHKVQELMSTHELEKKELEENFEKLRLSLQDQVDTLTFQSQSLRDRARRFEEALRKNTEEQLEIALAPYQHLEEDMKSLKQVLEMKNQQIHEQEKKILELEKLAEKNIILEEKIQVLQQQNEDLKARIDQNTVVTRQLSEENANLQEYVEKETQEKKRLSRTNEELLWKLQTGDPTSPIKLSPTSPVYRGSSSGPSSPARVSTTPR

| Variant | effect of a mutation on the interaction |
| --- | --- |
| R143W | with no effect |
| E32A | with no effect |

Variants of: B2
Conditions: with tri23_human TRIM23, P36406
Target sequence in this assay (P36406 whole entry): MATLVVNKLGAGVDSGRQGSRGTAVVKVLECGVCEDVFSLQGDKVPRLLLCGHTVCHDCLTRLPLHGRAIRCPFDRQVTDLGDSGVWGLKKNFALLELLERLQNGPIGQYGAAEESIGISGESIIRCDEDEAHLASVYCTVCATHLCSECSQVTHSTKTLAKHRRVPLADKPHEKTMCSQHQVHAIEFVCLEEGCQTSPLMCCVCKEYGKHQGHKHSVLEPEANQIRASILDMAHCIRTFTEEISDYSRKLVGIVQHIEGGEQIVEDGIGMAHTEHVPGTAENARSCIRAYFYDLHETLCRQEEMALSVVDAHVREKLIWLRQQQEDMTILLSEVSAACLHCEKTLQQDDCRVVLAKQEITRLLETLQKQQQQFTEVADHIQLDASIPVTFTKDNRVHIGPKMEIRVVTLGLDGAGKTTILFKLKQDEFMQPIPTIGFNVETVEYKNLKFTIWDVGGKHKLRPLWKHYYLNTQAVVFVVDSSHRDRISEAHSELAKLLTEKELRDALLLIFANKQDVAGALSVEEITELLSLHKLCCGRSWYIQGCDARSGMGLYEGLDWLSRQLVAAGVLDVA

| Variant | effect of a mutation on the interaction |
| --- | --- |
| R143W | with no effect |
| E32A | with no effect |

Variants of: B3
Conditions: with tri23_human TRIM23, P36406
Target sequence in this assay (P36406 whole entry): as above

| Variant | effect of a mutation on the interaction |
| --- | --- |
| N432S | with no effect |

Variants of: B4
Conditions: with mtus2_human MTUS2, Q5JR59
Target sequence in this assay (Q5JR59 whole entry): as the sequence (Q5JR59 whole entry) above

| Variant | effect of a mutation on the interaction |
| --- | --- |
| D25E | with no effect |
| S242L | with no effect |
| V215A | with no effect |
| H96L | with no effect |
| R237S | with no effect |
| S292N | with no effect |
| R305P | with no effect |
| R303Q | with no effect |

Variants of: B4
Conditions: with cep70_human CEP70, Q8NHQ1
Target sequence in this assay (Q8NHQ1 whole entry): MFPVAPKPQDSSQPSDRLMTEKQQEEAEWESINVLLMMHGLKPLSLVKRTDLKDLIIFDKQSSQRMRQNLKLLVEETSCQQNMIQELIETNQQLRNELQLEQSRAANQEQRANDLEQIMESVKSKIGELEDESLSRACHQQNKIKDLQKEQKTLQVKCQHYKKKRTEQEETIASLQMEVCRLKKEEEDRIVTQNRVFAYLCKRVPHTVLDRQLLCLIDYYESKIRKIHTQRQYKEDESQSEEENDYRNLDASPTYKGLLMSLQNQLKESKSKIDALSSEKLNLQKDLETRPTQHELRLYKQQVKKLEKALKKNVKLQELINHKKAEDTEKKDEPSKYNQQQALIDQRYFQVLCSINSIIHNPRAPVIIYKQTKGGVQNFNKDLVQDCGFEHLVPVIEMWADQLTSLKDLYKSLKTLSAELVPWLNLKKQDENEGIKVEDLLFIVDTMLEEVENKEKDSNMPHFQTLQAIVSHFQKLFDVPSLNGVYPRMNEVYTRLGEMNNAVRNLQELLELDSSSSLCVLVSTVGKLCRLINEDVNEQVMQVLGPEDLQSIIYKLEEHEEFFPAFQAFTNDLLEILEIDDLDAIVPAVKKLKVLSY

| Variant | effect of a mutation on the interaction |
| --- | --- |
| S242L | with no effect |
| A210V | with no effect |

Variants of: B5
Conditions: with coka1_human COL20A1, Q9P218

| Variant | effect of a mutation on the interaction |
| --- | --- |
| R23H | with no effect |

Variants of: B6
Conditions: with dnja3_human DNAJA3, Q96EY1
Sequence of dnja3_human DNAJA3, Q96EY1 (Q96EY1 whole entry): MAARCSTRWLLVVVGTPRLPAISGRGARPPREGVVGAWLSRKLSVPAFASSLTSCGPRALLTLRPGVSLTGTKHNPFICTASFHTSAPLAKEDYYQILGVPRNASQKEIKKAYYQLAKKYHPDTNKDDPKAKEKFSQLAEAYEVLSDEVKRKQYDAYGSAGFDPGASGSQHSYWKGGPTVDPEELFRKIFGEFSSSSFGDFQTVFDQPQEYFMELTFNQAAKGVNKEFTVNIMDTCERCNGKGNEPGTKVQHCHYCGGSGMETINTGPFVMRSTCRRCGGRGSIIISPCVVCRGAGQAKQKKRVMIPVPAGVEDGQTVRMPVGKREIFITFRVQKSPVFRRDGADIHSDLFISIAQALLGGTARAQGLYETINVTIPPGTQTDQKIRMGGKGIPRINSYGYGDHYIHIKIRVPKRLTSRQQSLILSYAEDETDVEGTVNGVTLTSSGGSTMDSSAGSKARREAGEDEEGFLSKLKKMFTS

| Variant | effect of a mutation on the interaction |
| --- | --- |
| A178T | with no effect |

Variants of: B6
Conditions: with cep70_human CEP70, Q8NHQ1
Target sequence in this assay (Q8NHQ1 whole entry): as the sequence (Q8NHQ1 whole entry) above

| Variant | effect of a mutation on the interaction |
| --- | --- |
| A178T | with no effect |

Variants of: B6
Conditions: with ikzf1_human IKZF1, Q13422

| Variant | effect of a mutation on the interaction |
| --- | --- |
| A178T | with no effect |
